Tested on: MS2 coat protein
Assay: apparent KD of MS2 coat protein; higher = weaker reporter binding
Settings: Eterna round: R107
Outline: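 Apparent KD per design is the median of normalised cluster binding-curve fits. Designed RNA switches transcribed on-chip from Illumina sequencing clusters were titrated with SNAP-549-labelled MS2 coat protein in twofold steps from 0.7 or 1.5 nM to 3 µM, with 0.8–1.5 h down to 10–20 min per step. Buffer: 100 mM Tris-HCl pH 7.5, 80 mM KCl, 4 mM MgCl2, without or with constant ligand.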

[1] = input ligand: theophylline 20 uM
[2] = input ligand: theophylline 2 mM
[3] = input ligand: tryptophan 2.4 mM

| Sequence | apparent KD of MS2 coat protein (input ligand: arginine 13.2 mM) | apparent KD of MS2 coat protein [1] | apparent KD of MS2 coat protein [2] | apparent KD of MS2 coat protein (input ligand: none) | apparent KD of MS2 coat protein [3] |
| --- | --- | --- | --- | --- | --- |
| GGUUACUCUACGGCCGCCACUGUAAAGUAAAUAUUAAUGUACAUGACAUGAGGAUCACCCAUGUACAGGACCGGGUAGUGUAACC [Tryptophan B 14] | 45.5 nM | 56.5 nM | 46.5 nM |  |  |
| CCAUAGGGUAAAUACGUAAUCAUAUCUGAAGGAGCGUGGAUAUACACAGGUAGGUCGCAGAAUCACAUGAGGAUCACCCAUGUCU [Same State Arginine A GF12] | 28.8 nM | 39.8 nM | 47.5 nM | 41.2 nM | 42.7 nM |
| GCGAUGGAGCGAAGGAGCGGCUAUCACCGACAAAACAUGAGGAUCACCCAUGUUGGCAGUGGCCAGGUAGGUCGCGCUCCAUCGC [EAB NP+V+V2 #8] | 8.17 nM | 12.3 nM | 10.8 nM | 11.4 nM | 8.57 nM |
| UGACACAUGAGGAUCACCCAUGUCGCGAAACGAGGACCGGUACGGCCGCCACUCGCACAAACUCCUCUCCAGCACCAGCUUUUAG [theeternabot_sameState_MS2_Trp_A_3] | 15.4 nM | 28.2 nM | 24.2 nM |  |  |
| AUAAGGUAUCUGCUUCAUGGGUGAGCAGAUACCAGCUAGGAAACUAGCCCUUGGCAGCUGCAACAUGAGGAUCACCCAUGUAAUA [(T)'-(M)'-(T1)-(T2)-(M1)-(M2)_Design2] | 60.7 nM | 149 nM | 964 nM | 1060 nM | 142 nM |
| UGUAUGGACUGAAGGAGCGCCUCAAAAUAUCAUGAGGAUCACCCAUGGAAGGCGAAAGCCGGGCAGGUAGGUCGCAGUCCAUACU [ArgBX 3] | 20.2 nM | 19.1 nM | 15.6 nM | 15.6 nM | 13.4 nM |
| AAUAACAUGAGGAUCACCCAUGUAAAAGAUACCAGAUGCAUGAUGAUCCCUUGGCAGCUUAAAACGCGAUUGAUUACAAUCGCGA [Mat - Same State Theophlline A - Mod of Eli - D12] | 41 nM | 77.9 nM |  |  | 27.5 nM |
| ACGCCCAGGUAGGCUUAGUGGGAAAUGGAAGGAGCGCUGAUGCAAGCAGGUAGGUCGCCAACGAACAUGAGGAUCACCCAUGUAA [Same State - Arginine A (Freestyle 1)] | 14 nM | 29.8 nM | 20.7 nM | 17.9 nM | 16.4 nM |
| ACACAUGAGGAUCACCCAUGUUCAAUAGAUACCAGUGAUACGGUGCACCCUUGGCAGCUGUUGCUGAGUGAUGGUUCCCUCGGUA [#23 SameState-TheophyllineA] | 28.1 nM | 53.9 nM |  |  | 41 nM |
| CGAUGCGCAUUAUCCCACUGGUAUGAGUCUCGAGGACCGGUACGGCCGCCACUCGCUACCGUACAUGAGGAUCACCCAUGUAUUA [theeternabot_exclusion_MS2_Trp_A_13] | 23.7 nM | 38.8 nM | 35.9 nM |  |  |
| AUAUUAAUCGGAAGGAGCGGUACAUGAGGAUCACCCAUGUGUGAAGCGAGCAGAUCCCGUUACCAGGUAGGUCGCCGAGUUAUGA [XArg-B6] | 85.4 nM | 229 nM | 187 nM | 213 nM | 148 nM |
| ACAUUAGCCACGGCCGCCACUGCCUUAUGAUUAUAAGGAUUAAUGAACAUGAGGAUCACCCAUGUCAGGACCGGGUGCCUACCAU [SSTryp B #5] | 20.1 nM | 32.5 nM | 26.5 nM |  |  |
| AGAGUUAGACAAAAGUCUAGCUCACCAGAAGGAGCGUCCGAAAGGACAGGUAGGUCGCUGGUACAUGAGGAUCACCCAUGUUCCU [ArgAS 8 #OpenEnded] | 43.5 nM | 116 nM | 145 nM | 124 nM | 82 nM |
| UGCGAUUGCUCAGAUACCAGACAUGAGGAUCACCCAUGUACCAAGGUAAAGAAAUAACGUGUCCCUUGGCAGCUGAGCAAUCGCU [MAT - Exclusion Theophlline B - Mod of Eli - D9] | 11.9 nM | 14 nM |  |  | 11.3 nM |
| GGGCCCGGGCGCGAGCCCGGGCCCAUUGAUACCAGUGAUAUAUGACGCCCUUGGCAGCGAAUCCUAACAUGAGGAUCACCCAUGU [5.H] | 22.8 nM | 58.9 nM | 81.6 nM | 54.7 nM | 37.1 nM |
| ACAUGAGGAUCACCCAUGUGCCGUCUUGAUACCAGACGCGAAGUAGUCCCUUGGCAGCAAAUACGUGAGGGUCGCGCAUGUGUAA [wzxmullin] | 21.8 nM | 27.3 nM |  |  | 24.9 nM |
| GGAUAGGACACGGCCGCCACUAGCUAGGAUACUAGCAACAUUUCCUCACUUGAGGAUCACCCAAGUAGGACCGGGUGUCCUAUCG | 95.2 nM | 250 nM | 160 nM | 162 nM | 182 nM |
| UAUAAACAGCCUGGUUACUCGUCGCGCUUGCGAGGACCGGUACGGCCGCCACUCGACCCAUCACAUGAGGAUCACCCAUGUCCCA [theeternabot_exclusion_MS2_Trp_A_25] | 29.4 nM | 45 nM | 38.6 nM |  |  |
| CCUAUUCCUACGGAUACCAGACGAUCCGUGGCGUGUGUGAACAUGAGGAUCACCCAUGUAGUCCCUUGGCAGCCGAUGCGGGUAA [theeternabot_exclusion_MS2_Theo_B_10] | 37.7 nM | 51.4 nM |  |  | 33.5 nM |

Reference: the supplement of paper PMC9170038
